Laboratory results: the Immune Epitope Database (IEDB)

Tests used:
HLA-A*68:23 = experiment: IEDB peptide-MHC binding, purified MHC/competitive/fluorescence; filed as Kd, often an IC50 or EC50 that approximates it; ≥ and ≤ were set here for values at or beyond the usual limits of such assays; conditions: source organism: Homo sapiens
HLA-B*15:42 = experiment: as above; conditions: source organism: Homo sapiens
HLA-B*45:06 = experiment: as above; conditions: source organism: Homo sapiens
HLA-B*83:01 = experiment: as above; conditions: source organism: Homo sapiens
HLA-C*06:02 = experiment: IEDB peptide-MHC binding, purified MHC/direct/fluorescence; filed as Kd, often an IC50 or EC50 that approximates it; ≥ and ≤ were set here for values at or beyond the usual limits of such assays; conditions: source organism: Listeria monocytogenes serotype 1/2a str. F6854
HLA-C*07:02 = experiment: as above
HLA-C*15:02 = experiment: as above; conditions: source organism: Listeria monocytogenes serotype 1/2a str. F6854
HLA-B*46:01 = experiment: IEDB peptide-MHC binding, purified MHC/competitive/fluorescence; filed as Kd, often an IC50 or EC50 that approximates it; ≥ and ≤ were set here for values at or beyond the usual limits of such assays; conditions: source organism: Listeria monocytogenes serotype 1/2a str. F6854
HLA-A*01:01 = experiment: IEDB peptide-MHC binding, purified MHC/direct/fluorescence; filed as Kd, often an IC50 or EC50 that approximates it; ≥ and ≤ were set here for values at or beyond the usual limits of such assays
HLA-A*02:01 = experiment: as above
HLA-A*11:01 [1] = experiment: as above
HLA-A*24:03 = experiment: as above; conditions: source organism: Camelpox virus M-96
HLA-A*68:02 [2] = experiment: as above
HLA-A*69:01 = experiment: as above
HLA-B*07:02 = experiment: as above
HLA-B*08:01 = experiment: as above
HLA-B*08:03 = experiment: as above
HLA-B*15:09 = experiment: as above; conditions: source organism: Variola virus
HLA-B*39:01 [3] = experiment: as above
HLA-B*57:01 = experiment: as above
HLA-B*58:01 = experiment: as above
HLA-C*14:02 = experiment: as above; conditions: source organism: Vaccinia virus Copenhagen
HLA-A*02:03 = experiment: IEDB peptide-MHC binding, purified MHC/competitive/fluorescence; filed as Kd, often an IC50 or EC50 that approximates it; ≥ and ≤ were set here for values at or beyond the usual limits of such assays; conditions: source organism: Vaccinia virus Copenhagen
HLA-A*26:02 [4] = experiment: as above
HLA-A*31:01 [5] = experiment: as above
HLA-B*15:01 [6] = experiment: as above; conditions: source organism: Vaccinia virus Copenhagen
HLA-B*15:17 [7] = experiment: as above
HLA-B*18:01 [8] = experiment: as above
HLA-A*03:01 = experiment: IEDB peptide-MHC binding, purified MHC/direct/fluorescence; filed as Kd, often an IC50 or EC50 that approximates it; ≥ and ≤ were set here for values at or beyond the usual limits of such assays; conditions: source organism: Influenza A virus (A/chicken/Hubei/wk/1997(H5N1))
HLA-A*31:01 [9] = experiment: as above
HLA-B*15:01 [10] = experiment: as above
HLA-B*48:01 = experiment: as above
HLA-B*73:01 = experiment: as above; conditions: source organism: Influenza A virus (A/chicken/Hubei/wk/1997(H5N1))
HLA-A*11:01 [11] = experiment: IEDB peptide-MHC binding, purified MHC/competitive/fluorescence; filed as Kd, often an IC50 or EC50 that approximates it; ≥ and ≤ were set here for values at or beyond the usual limits of such assays
HLA-A*30:01 = experiment: as above
HLA-B*15:17 [12] = experiment: IEDB peptide-MHC binding, purified MHC/direct/fluorescence; filed as Kd, often an IC50 or EC50 that approximates it; ≥ and ≤ were set here for values at or beyond the usual limits of such assays
HLA-A*02:06 = experiment: IEDB peptide-MHC binding, purified MHC/competitive/fluorescence; filed as Kd, often an IC50 or EC50 that approximates it; ≥ and ≤ were set here for values at or beyond the usual limits of such assays; conditions: source organism: Vaccinia virus WR
HLA-A*68:02 [13] = experiment: as above; conditions: source organism: Vaccinia virus WR
HLA-B*39:01 [14] = experiment: as above; conditions: source organism: Vaccinia virus WR
HLA-A*26:02 [15] = experiment: IEDB peptide-MHC binding, purified MHC/direct/fluorescence; filed as Kd, often an IC50 or EC50 that approximates it; ≥ and ≤ were set here for values at or beyond the usual limits of such assays; conditions: source organism: Giardia lamblia ATCC 50803
HLA-A*26:03 = experiment: as above; conditions: source organism: Giardia lamblia ATCC 50803
HLA-B*08:02 = experiment: as above; conditions: source organism: Giardia lamblia ATCC 50803
HLA-B*18:01 [16] = experiment: as above; conditions: source organism: Giardia lamblia ATCC 50803
HLA-B*27:05 = experiment: as above; conditions: source organism: Giardia lamblia ATCC 50803
HLA-B*40:01 = experiment: as above; conditions: source organism: Giardia lamblia ATCC 50803
[17] = source organism: Camelpox virus M-96
[18] = source organism: Vaccinia virus Copenhagen
[19] = source organism: Influenza A virus (A/chicken/Hubei/wk/1997(H5N1))
[20] = source organism: Influenza A virus H3N2
[21] = source organism: Vaccinia virus WR
[22] = source organism: Giardia lamblia ATCC 50803

## KGPPAALTL
HLA-A*68:23
  Kd: 0.946 µM
HLA-B*15:42
  Kd: ≥ 5 µM
HLA-B*45:06
  Kd: ≥ 5 µM
HLA-B*83:01
  Kd: 5.27 µM

## KMIGNLLSF
HLA-C*06:02
  Kd: ≥ 20 µM
HLA-C*07:02; source organism: Listeria monocytogenes serotype 1/2a str. F6854
  Kd: 0.666 µM
HLA-C*15:02
  Kd: 2.56 µM
HLA-B*46:01
  Kd: 1.11 µM

## KYFDDVTAF
HLA-A*01:01; [17]
  Kd: ≥ 20 µM
HLA-A*02:01; [17]
  Kd: ≥ 20 µM
HLA-A*11:01 [1]; [17]
  Kd: ≥ 20 µM
HLA-A*24:03
  Kd: 0.0055 µM
HLA-A*68:02 [2]; [17]
  Kd: ≥ 20 µM
HLA-A*69:01; [17]
  Kd: ≥ 20 µM
HLA-B*07:02; [17]
  Kd: ≥ 20 µM
HLA-B*08:01; source organism: Variola virus
  Kd: ≥ 20 µM
HLA-B*08:03; source organism: Variola virus
  Kd: ≥ 20 µM
HLA-B*15:09
  Kd: ≥ 20 µM
HLA-B*39:01 [3]; source organism: Variola virus
  Kd: ≥ 20 µM
HLA-B*57:01; [17]
  Kd: ≥ 20 µM
HLA-B*58:01; [17]
  Kd: ≥ 20 µM
HLA-C*14:02
  Kd: ≤ 0.001 µM
HLA-A*02:03
  Kd: 3.99 µM
HLA-A*26:02 [4]; [18]
  Kd: ≥ 20 µM
HLA-A*31:01 [5]; [18]
  Kd: 2.95 µM
HLA-B*15:01 [6]
  Kd: 2.07 µM
HLA-B*15:17 [7]; [18]
  Kd: 4.33 µM
HLA-B*18:01 [8]; [18]
  Kd: 0.0874 µM

## MKWMMAMKY
HLA-A*01:01; [19]
  Kd: ≥ 20 µM
HLA-A*02:01; [19]
  Kd: ≥ 20 µM
HLA-A*03:01
  Kd: ≥ 20 µM
HLA-A*31:01 [9]; [19]
  Kd: ≥ 20 µM
HLA-A*68:02 [2]; [19]
  Kd: ≥ 20 µM
HLA-A*69:01; [19]
  Kd: ≥ 20 µM
HLA-B*07:02; [19]
  Kd: ≥ 20 µM
HLA-B*08:01; source organism: Influenza A virus(A/swine/Shandong/fNY/2003(H9N2))
  Kd: ≥ 20 µM
HLA-B*15:01 [10]; [19]
  Kd: ≥ 20 µM
HLA-B*48:01; [19]
  Kd: ≥ 20 µM
HLA-B*57:01; [19]
  Kd: ≥ 20 µM
HLA-B*58:01; [19]
  Kd: ≥ 20 µM
HLA-B*73:01
  Kd: ≥ 20 µM
HLA-A*11:01 [11]; [20]
  Kd: ≥ 20 µM
HLA-A*30:01; [20]
  Kd: 1.08 µM
HLA-B*15:17 [7]; [20]
  Kd: 0.912 µM
HLA-B*18:01 [8]; [20]
  Kd: 0.984 µM

## NYFNRMFHF
HLA-A*01:01; [17]
  Kd: ≥ 20 µM
HLA-A*02:01; [17]
  Kd: ≥ 20 µM
HLA-A*24:03
  Kd: 0.0043 µM
HLA-A*69:01; [17]
  Kd: ≥ 20 µM
HLA-B*07:02; [17]
  Kd: ≥ 20 µM
HLA-B*15:01 [10]; [17]
  Kd: ≥ 20 µM
HLA-B*15:17 [12]; [17]
  Kd: ≥ 20 µM
HLA-B*57:01; [17]
  Kd: ≥ 20 µM
HLA-B*58:01; [17]
  Kd: ≥ 20 µM
HLA-C*07:02; [21]
  Kd: 0.003 µM
HLA-A*02:06
  Kd: 3.36 µM
HLA-A*11:01 [11]; [21]
  Kd: ≥ 20 µM
HLA-A*26:02 [4]; [21]
  Kd: ≥ 20 µM
HLA-A*30:01; [21]
  Kd: 3.26 µM
HLA-A*31:01 [5]; [21]
  Kd: 2.3 µM
HLA-A*68:02 [13]
  Kd: ≥ 20 µM
HLA-B*18:01 [8]; [21]
  Kd: 0.89 µM
HLA-B*39:01 [14]
  Kd: 3 µM

## RENQVAVVR
HLA-A*01:01; [22]
  Kd: ≥ 20 µM
HLA-A*02:01; [22]
  Kd: ≥ 20 µM
HLA-A*11:01 [1]; [22]
  Kd: ≥ 20 µM
HLA-A*26:02 [15]
  Kd: ≥ 20 µM
HLA-A*26:03
  Kd: ≥ 20 µM
HLA-A*31:01 [9]; [22]
  Kd: ≥ 20 µM
HLA-A*68:02 [2]; [22]
  Kd: ≥ 20 µM
HLA-A*69:01; [22]
  Kd: ≥ 20 µM
HLA-B*07:02; [22]
  Kd: ≥ 20 µM
HLA-B*08:01; [22]
  Kd: ≥ 20 µM
HLA-B*08:02
  Kd: ≥ 20 µM
HLA-B*08:03; [22]
  Kd: ≥ 20 µM
HLA-B*15:17 [12]; [22]
  Kd: ≥ 20 µM
HLA-B*18:01 [16]
  Kd: ≥ 20 µM
HLA-B*27:05
  Kd: ≥ 20 µM
HLA-B*39:01 [3]; [22]
  Kd: ≥ 20 µM
HLA-B*40:01
  Kd: ≥ 20 µM
HLA-B*48:01; [22]
  Kd: ≥ 20 µM
HLA-B*57:01; [22]
  Kd: ≥ 20 µM
HLA-B*58:01; [22]
  Kd: ≥ 20 µM
